Data from article PMC3521585 (Journal of medicinal chemistry, 2009).
Non-standard residues stand in square brackets, D forms with d. No end group written: not given here. *: point of attachment. NH(3,5-(CF3)2-benzyl) = FC(F)(F)c1cc(CN*)cc(C(F)(F)F)c1; βGlc = OC[C@H]1O[C@@H](*)[C@H](O)[C@@H](O)[C@@H]1O; Nle = CCCC[C@H](N)C(=O)O

B1: Tyr-D-Ala-Gly-Phe-Nle-Pro-Leu-Trp-NH-3’,5’-Bzl(CF3)2 (peptide)
chain: YAGFXPLW
modifications: D-Ala at 2; norleucine (Nle) at 5 (written X); C-terminal 3’,5’-bis(trifluoromethyl)benzyl amide (Trp-NH-3’,5’-Bzl(CF3)2)

These binders were tested against T1, human δ-opioid receptor (human, UniProt P41143 1-372) (assay: cell-based or functional assay).
T1 sequence (P41143 whole entry, stated change not applied): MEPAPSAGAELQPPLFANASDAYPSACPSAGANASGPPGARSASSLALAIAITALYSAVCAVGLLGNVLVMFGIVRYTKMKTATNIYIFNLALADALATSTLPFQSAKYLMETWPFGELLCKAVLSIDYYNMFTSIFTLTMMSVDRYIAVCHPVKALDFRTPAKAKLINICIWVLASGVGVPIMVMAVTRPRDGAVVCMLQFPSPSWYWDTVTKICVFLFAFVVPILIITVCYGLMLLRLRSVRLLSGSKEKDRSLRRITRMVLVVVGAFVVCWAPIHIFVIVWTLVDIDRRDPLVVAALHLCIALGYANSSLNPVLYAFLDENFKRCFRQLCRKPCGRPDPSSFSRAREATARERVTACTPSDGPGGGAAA

In order of rising “[35S]GTPγS binding, HN9.10 membranes expressing hDOR: EC50” value:
1. B1  5 nM
2. Y[dA]GF[Nle]PS(βGlc)W-{NH(3,5-(CF3)2-benzyl)} [Tyr-D-Ala-Gly-Phe-Nle-Pro-Ser(Glc)-Trp-NH-3’,5’-Bzl(CF3)2]  7.9 nM
3. Y[dA]GFS(βGlc)PLW-{NH(3,5-(CF3)2-benzyl)} [Tyr-D-Ala-Gly-Phe-Ser(Glc)-Pro-Leu-Trp-NH-3’,5’-Bzl(CF3)2]  52 nM

In order of rising “[35S]GTPγS binding, HN9.10 membranes expressing hDOR: Emax” value:
1. Y[dA]GF[Nle]PLS(βGlc)W-{NH(3,5-(CF3)2-benzyl)} [Tyr-D-Ala-Gly-Phe-Nle-Pro-Leu-Ser(Glc)-Trp-NH-3’,5’-Bzl(CF3)2]  49%
2. Y[dA]GF[Nle]PS(βGlc)W-{NH(3,5-(CF3)2-benzyl)} [Tyr-D-Ala-Gly-Phe-Nle-Pro-Ser(Glc)-Trp-NH-3’,5’-Bzl(CF3)2]  64%
3. B1  120%
4. Y[dA]GF[Nle]S(βGlc)LW-{NH(3,5-(CF3)2-benzyl)} [Tyr-D-Ala-Gly-Phe-Nle-Ser(Glc)-Leu-Trp-NH-3’,5’-Bzl(CF3)2]  130%

In order of rising “[35S]GTPγS binding, HN9.10 membranes expressing hDOR: LogEC50” value:
1. B1  -8.3
2. Y[dA]GF[Nle]PS(βGlc)W-{NH(3,5-(CF3)2-benzyl)} [Tyr-D-Ala-Gly-Phe-Nle-Pro-Ser(Glc)-Trp-NH-3’,5’-Bzl(CF3)2]  -8.1
3. Y[dA]GF[Nle]PLS(βGlc)W-{NH(3,5-(CF3)2-benzyl)} [Tyr-D-Ala-Gly-Phe-Nle-Pro-Leu-Ser(Glc)-Trp-NH-3’,5’-Bzl(CF3)2]  -7.56
4. Y[dA]GFS(βGlc)PLW-{NH(3,5-(CF3)2-benzyl)} [Tyr-D-Ala-Gly-Phe-Ser(Glc)-Pro-Leu-Trp-NH-3’,5’-Bzl(CF3)2]  -7.29

Each binder was assayed against T2, rat μ-opioid receptor (rat, UniProt P33535 1-398) (assay: cell-based or functional assay).
T2 sequence (P33535 whole entry): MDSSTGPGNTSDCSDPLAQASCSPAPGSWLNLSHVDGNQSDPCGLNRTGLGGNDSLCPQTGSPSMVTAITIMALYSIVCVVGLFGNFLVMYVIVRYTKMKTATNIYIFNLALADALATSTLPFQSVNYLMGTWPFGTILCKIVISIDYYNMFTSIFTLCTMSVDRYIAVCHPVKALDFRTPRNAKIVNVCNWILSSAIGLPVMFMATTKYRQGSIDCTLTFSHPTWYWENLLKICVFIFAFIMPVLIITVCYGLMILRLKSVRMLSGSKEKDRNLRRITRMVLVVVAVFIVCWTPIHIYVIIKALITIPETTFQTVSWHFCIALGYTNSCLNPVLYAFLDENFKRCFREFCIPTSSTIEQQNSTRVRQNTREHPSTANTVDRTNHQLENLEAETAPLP

In order of falling “[35S]GTPγS binding, HN9.10 membranes expressing rMOR: EC50” value:
1. Y[dA]GF[Nle]S(βGlc)LW-{NH(3,5-(CF3)2-benzyl)} [Tyr-D-Ala-Gly-Phe-Nle-Ser(Glc)-Leu-Trp-NH-3’,5’-Bzl(CF3)2]  380 nM
2. Y[dA]GFS(βGlc)PLW-{NH(3,5-(CF3)2-benzyl)} [Tyr-D-Ala-Gly-Phe-Ser(Glc)-Pro-Leu-Trp-NH-3’,5’-Bzl(CF3)2]  180 nM
3. Y[dA]GF[Nle]PS(βGlc)W-{NH(3,5-(CF3)2-benzyl)} [Tyr-D-Ala-Gly-Phe-Nle-Pro-Ser(Glc)-Trp-NH-3’,5’-Bzl(CF3)2]  18 nM

In order of falling “[35S]GTPγS binding, HN9.10 membranes expressing rMOR: Emax” value:
1. Y[dA]GF[Nle]S(βGlc)LW-{NH(3,5-(CF3)2-benzyl)} [Tyr-D-Ala-Gly-Phe-Nle-Ser(Glc)-Leu-Trp-NH-3’,5’-Bzl(CF3)2]  81%
2. Y[dA]GF[Nle]PLS(βGlc)W-{NH(3,5-(CF3)2-benzyl)} [Tyr-D-Ala-Gly-Phe-Nle-Pro-Leu-Ser(Glc)-Trp-NH-3’,5’-Bzl(CF3)2]  50%
3. Y[dA]GF[Nle]PS(βGlc)W-{NH(3,5-(CF3)2-benzyl)} [Tyr-D-Ala-Gly-Phe-Nle-Pro-Ser(Glc)-Trp-NH-3’,5’-Bzl(CF3)2]  38%

In order of falling “[35S]GTPγS binding, HN9.10 membranes expressing rMOR: LogEC50” value:
1. Y[dA]GF[Nle]S(βGlc)LW-{NH(3,5-(CF3)2-benzyl)} [Tyr-D-Ala-Gly-Phe-Nle-Ser(Glc)-Leu-Trp-NH-3’,5’-Bzl(CF3)2]  -6.42
2. Y[dA]GFS(βGlc)PLW-{NH(3,5-(CF3)2-benzyl)} [Tyr-D-Ala-Gly-Phe-Ser(Glc)-Pro-Leu-Trp-NH-3’,5’-Bzl(CF3)2]  -6.76
3. Y[dA]GF[Nle]PS(βGlc)W-{NH(3,5-(CF3)2-benzyl)} [Tyr-D-Ala-Gly-Phe-Nle-Pro-Ser(Glc)-Trp-NH-3’,5’-Bzl(CF3)2]  -7.75
4. Y[dA]GF[Nle]PLS(βGlc)W-{NH(3,5-(CF3)2-benzyl)} [Tyr-D-Ala-Gly-Phe-Nle-Pro-Leu-Ser(Glc)-Trp-NH-3’,5’-Bzl(CF3)2]  -8.21

These binders were tested against T2, rat μ-opioid receptor (assay: radioligand binding).

In order of falling Ki:
1. Y[dA]GF[Nle]S(βGlc)LW-{NH(3,5-(CF3)2-benzyl)} [Tyr-D-Ala-Gly-Phe-Nle-Ser(Glc)-Leu-Trp-NH-3’,5’-Bzl(CF3)2]  3400 nM
2. Y[dA]GFS(βGlc)PLW-{NH(3,5-(CF3)2-benzyl)} [Tyr-D-Ala-Gly-Phe-Ser(Glc)-Pro-Leu-Trp-NH-3’,5’-Bzl(CF3)2]  260 nM
3. Y[dA]GF[Nle]PS(βGlc)W-{NH(3,5-(CF3)2-benzyl)} [Tyr-D-Ala-Gly-Phe-Nle-Pro-Ser(Glc)-Trp-NH-3’,5’-Bzl(CF3)2]  8 nM

In order of falling LogIC50:
1. Y[dA]GF[Nle]S(βGlc)LW-{NH(3,5-(CF3)2-benzyl)} [Tyr-D-Ala-Gly-Phe-Nle-Ser(Glc)-Leu-Trp-NH-3’,5’-Bzl(CF3)2]  -5.15
2. Y[dA]GFS(βGlc)PLW-{NH(3,5-(CF3)2-benzyl)} [Tyr-D-Ala-Gly-Phe-Ser(Glc)-Pro-Leu-Trp-NH-3’,5’-Bzl(CF3)2]  -6.12
3. Y[dA]GF[Nle]PLS(βGlc)W-{NH(3,5-(CF3)2-benzyl)} [Tyr-D-Ala-Gly-Phe-Nle-Pro-Leu-Ser(Glc)-Trp-NH-3’,5’-Bzl(CF3)2]  -7.22
4. Y[dA]GF[Nle]PS(βGlc)W-{NH(3,5-(CF3)2-benzyl)} [Tyr-D-Ala-Gly-Phe-Nle-Pro-Ser(Glc)-Trp-NH-3’,5’-Bzl(CF3)2]  -7.77

What follows are binders tested against T1, human δ-opioid receptor (assay: radioligand binding).

In order of falling Ki:
1. Y[dA]GFS(βGlc)PLW-{NH(3,5-(CF3)2-benzyl)} [Tyr-D-Ala-Gly-Phe-Ser(Glc)-Pro-Leu-Trp-NH-3’,5’-Bzl(CF3)2]  59 nM
2. B1  1 nM

In order of falling LogIC50:
1. Y[dA]GFS(βGlc)PLW-{NH(3,5-(CF3)2-benzyl)} [Tyr-D-Ala-Gly-Phe-Ser(Glc)-Pro-Leu-Trp-NH-3’,5’-Bzl(CF3)2]  -6.91
2. Y[dA]GF[Nle]PS(βGlc)W-{NH(3,5-(CF3)2-benzyl)} [Tyr-D-Ala-Gly-Phe-Nle-Pro-Ser(Glc)-Trp-NH-3’,5’-Bzl(CF3)2]  -8.1
3. B1  -8.67

These binders were tested against human NK1 receptor (human, UniProt P25103 1-407) (assay: radioligand binding).
Chain of human NK1 receptor (P25103 whole entry): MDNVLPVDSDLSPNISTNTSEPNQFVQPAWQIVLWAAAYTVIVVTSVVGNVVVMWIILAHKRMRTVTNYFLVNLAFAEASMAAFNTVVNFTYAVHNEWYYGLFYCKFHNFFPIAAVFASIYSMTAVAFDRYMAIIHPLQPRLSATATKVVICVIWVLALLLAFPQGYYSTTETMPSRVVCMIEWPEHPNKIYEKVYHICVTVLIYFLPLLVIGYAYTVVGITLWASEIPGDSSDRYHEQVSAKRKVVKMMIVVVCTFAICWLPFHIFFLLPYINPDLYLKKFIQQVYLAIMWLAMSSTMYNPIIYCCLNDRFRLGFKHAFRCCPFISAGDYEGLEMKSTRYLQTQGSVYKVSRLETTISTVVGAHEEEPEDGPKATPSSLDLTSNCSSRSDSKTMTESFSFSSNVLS

In order of falling Ki:
1. Y[dA]GF[Nle]S(βGlc)LW-{NH(3,5-(CF3)2-benzyl)} [Tyr-D-Ala-Gly-Phe-Nle-Ser(Glc)-Leu-Trp-NH-3’,5’-Bzl(CF3)2]  1.8 nM
2. B1  0.0028 nM
3. Y[dA]GFS(βGlc)PLW-{NH(3,5-(CF3)2-benzyl)} [Tyr-D-Ala-Gly-Phe-Ser(Glc)-Pro-Leu-Trp-NH-3’,5’-Bzl(CF3)2]  0.0011 nM

In order of rising LogIC50:
1. Y[dA]GFS(βGlc)PLW-{NH(3,5-(CF3)2-benzyl)} [Tyr-D-Ala-Gly-Phe-Ser(Glc)-Pro-Leu-Trp-NH-3’,5’-Bzl(CF3)2]  -12.2
2. B1  -11.6
3. Y[dA]GF[Nle]PLS(βGlc)W-{NH(3,5-(CF3)2-benzyl)} [Tyr-D-Ala-Gly-Phe-Nle-Pro-Leu-Ser(Glc)-Trp-NH-3’,5’-Bzl(CF3)2]  -9.93
4. Y[dA]GF[Nle]S(βGlc)LW-{NH(3,5-(CF3)2-benzyl)} [Tyr-D-Ala-Gly-Phe-Nle-Ser(Glc)-Leu-Trp-NH-3’,5’-Bzl(CF3)2]  -8.38

Each binder was assayed against rat NK1 receptor (rat, UniProt P14600 1-407) (assay: radioligand binding).
Chain of rat NK1 receptor (P14600 whole entry): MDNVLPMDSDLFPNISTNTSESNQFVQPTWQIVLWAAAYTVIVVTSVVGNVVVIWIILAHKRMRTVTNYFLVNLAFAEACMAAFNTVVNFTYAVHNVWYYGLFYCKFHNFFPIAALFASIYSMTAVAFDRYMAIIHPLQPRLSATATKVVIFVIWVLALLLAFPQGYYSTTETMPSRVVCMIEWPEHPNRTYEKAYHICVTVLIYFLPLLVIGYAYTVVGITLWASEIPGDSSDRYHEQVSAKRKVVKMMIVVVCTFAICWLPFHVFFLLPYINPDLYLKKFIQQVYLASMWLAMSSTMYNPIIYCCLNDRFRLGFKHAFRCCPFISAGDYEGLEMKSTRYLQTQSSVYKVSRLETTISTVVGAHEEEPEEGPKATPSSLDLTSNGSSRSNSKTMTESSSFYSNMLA

In order of falling Ki:
1. Y[dA]GF[Nle]PS(βGlc)W-{NH(3,5-(CF3)2-benzyl)} [Tyr-D-Ala-Gly-Phe-Nle-Pro-Ser(Glc)-Trp-NH-3’,5’-Bzl(CF3)2]  14 nM
2. Y[dA]GFS(βGlc)PLW-{NH(3,5-(CF3)2-benzyl)} [Tyr-D-Ala-Gly-Phe-Ser(Glc)-Pro-Leu-Trp-NH-3’,5’-Bzl(CF3)2]  1.5 nM

In order of rising LogIC50:
1. Y[dA]GFS(βGlc)PLW-{NH(3,5-(CF3)2-benzyl)} [Tyr-D-Ala-Gly-Phe-Ser(Glc)-Pro-Leu-Trp-NH-3’,5’-Bzl(CF3)2]  -8.35
2. Y[dA]GF[Nle]PS(βGlc)W-{NH(3,5-(CF3)2-benzyl)} [Tyr-D-Ala-Gly-Phe-Nle-Pro-Ser(Glc)-Trp-NH-3’,5’-Bzl(CF3)2]  -7.3
3. Y[dA]GF[Nle]PLS(βGlc)W-{NH(3,5-(CF3)2-benzyl)} [Tyr-D-Ala-Gly-Phe-Nle-Pro-Leu-Ser(Glc)-Trp-NH-3’,5’-Bzl(CF3)2]  -7.02
